Each block holds one binder with its values, some of them ahead of it.
What was measured:
C3G-PAAA = target: T1, C3G-PAAA (human, UniProt Q13905-1 4-1077, P453A | P454A | L456A | P457A | K459A | P540A | P541A | L543A | P544A | K546A | …); experiment: ITC; single-PRM mutant of C3G in the cell titrated with CrkL or CrkL-SH3N, 25 °C, 300 mM NaCl, pH 7.5; SEDPHAT, 1:1 heteroassociation model; N is the competent fraction of C3G; details: both partners purified
T1 construct: human C3G isoform a, residues 4-1077; only P1 kept, P2, P3 and P4 mutated to Ala; source: E. coli BL21 (DE3), purified (IMAC, TEV digestion, reversed IMAC, SEC); not shown: His, N-terminal, cleaved; Halo, N-terminal, cleaved
T1 sequence (looked up): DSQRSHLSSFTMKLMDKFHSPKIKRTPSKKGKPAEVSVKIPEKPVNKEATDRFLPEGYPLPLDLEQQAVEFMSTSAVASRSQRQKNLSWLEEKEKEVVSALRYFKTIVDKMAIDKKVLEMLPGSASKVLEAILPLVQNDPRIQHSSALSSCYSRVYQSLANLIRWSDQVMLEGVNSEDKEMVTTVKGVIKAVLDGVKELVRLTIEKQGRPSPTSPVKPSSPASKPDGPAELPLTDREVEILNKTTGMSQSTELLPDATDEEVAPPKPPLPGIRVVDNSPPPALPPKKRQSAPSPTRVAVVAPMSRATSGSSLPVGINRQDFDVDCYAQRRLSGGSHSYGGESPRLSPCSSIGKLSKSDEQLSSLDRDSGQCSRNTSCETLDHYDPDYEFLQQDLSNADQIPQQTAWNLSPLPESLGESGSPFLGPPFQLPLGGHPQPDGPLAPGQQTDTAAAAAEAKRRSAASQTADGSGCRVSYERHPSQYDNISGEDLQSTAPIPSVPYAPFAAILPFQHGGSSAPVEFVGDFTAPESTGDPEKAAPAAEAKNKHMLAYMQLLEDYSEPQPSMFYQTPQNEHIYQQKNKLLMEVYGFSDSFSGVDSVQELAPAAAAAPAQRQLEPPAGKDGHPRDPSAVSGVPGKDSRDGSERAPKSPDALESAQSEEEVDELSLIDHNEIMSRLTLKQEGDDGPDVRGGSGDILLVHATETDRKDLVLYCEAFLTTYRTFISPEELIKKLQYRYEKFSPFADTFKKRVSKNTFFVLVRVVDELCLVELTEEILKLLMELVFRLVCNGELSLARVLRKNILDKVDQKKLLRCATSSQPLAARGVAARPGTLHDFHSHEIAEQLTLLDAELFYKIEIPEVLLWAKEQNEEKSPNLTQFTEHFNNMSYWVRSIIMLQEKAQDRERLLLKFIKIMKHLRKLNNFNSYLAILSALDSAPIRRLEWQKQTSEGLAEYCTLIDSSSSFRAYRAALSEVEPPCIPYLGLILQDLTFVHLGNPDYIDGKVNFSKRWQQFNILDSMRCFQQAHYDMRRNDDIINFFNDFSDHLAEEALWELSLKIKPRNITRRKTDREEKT

C3G-AAPA-Y554H = target: T2, C3G-AAPA-Y554H (human, UniProt Q13905-1 4-1077, P283A | P284A | L286 | P287 | P289A | P453A | P454A | L456A | P457A | K459A | …); experiment: as above; details: both partners purified
T2 construct: human C3G isoform a, residues 4-1077; source: E. coli BL21 (DE3), purified (IMAC, TEV digestion, reversed IMAC, SEC); not shown: His, N-terminal, cleaved; Halo, N-terminal, cleaved
T2 sequence (looked up): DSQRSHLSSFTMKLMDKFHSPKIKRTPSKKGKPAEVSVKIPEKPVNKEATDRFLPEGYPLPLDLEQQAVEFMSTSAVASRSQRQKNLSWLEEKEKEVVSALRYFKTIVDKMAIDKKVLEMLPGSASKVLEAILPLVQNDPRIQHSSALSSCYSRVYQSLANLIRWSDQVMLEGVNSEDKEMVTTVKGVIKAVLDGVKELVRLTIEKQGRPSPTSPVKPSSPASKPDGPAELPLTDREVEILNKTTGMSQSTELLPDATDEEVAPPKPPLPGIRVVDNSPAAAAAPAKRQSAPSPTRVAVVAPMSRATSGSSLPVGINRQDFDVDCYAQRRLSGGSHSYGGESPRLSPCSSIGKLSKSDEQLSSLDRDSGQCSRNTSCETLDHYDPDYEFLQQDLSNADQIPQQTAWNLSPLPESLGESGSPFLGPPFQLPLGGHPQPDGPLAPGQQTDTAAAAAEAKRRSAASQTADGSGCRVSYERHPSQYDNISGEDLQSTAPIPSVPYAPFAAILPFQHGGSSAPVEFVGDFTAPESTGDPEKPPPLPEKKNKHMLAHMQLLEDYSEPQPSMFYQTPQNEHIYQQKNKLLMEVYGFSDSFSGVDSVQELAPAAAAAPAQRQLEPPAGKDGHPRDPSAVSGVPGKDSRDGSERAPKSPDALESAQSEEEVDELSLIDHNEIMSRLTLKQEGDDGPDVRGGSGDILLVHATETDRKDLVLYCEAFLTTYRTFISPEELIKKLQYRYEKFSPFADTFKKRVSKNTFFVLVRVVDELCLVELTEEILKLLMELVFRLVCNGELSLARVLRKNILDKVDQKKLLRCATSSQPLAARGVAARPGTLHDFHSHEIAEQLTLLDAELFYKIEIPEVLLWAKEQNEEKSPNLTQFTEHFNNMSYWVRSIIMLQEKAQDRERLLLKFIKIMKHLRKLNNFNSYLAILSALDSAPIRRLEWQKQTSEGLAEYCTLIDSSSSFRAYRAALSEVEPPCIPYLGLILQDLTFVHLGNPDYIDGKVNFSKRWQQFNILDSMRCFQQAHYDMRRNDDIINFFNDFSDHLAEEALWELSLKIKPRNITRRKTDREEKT

Kd (C3G-PAAA): 900 nM
stoichiometry N (C3G-PAAA): 0.86
B1: CrkL (full-length) (natural protein, human, UniProt P46109 1-303, looked up)
chain: MSSARFDSSDRSAWYMGPVSRQEAQTRLQGQRHGMFLVRDSSTCPGDYVLSVSENSRVSHYIINSLPNRRFKIGDQEFDHLPALLEFYKIHYLDTTTLIEPAPRYPSPPMGSVSAPNLPTAEDNLEYVRTLYDFPGNDAEDLPFKKGEILVIIEKPEEQWWSARNKDGRVGMIPVPYVEKLVRSSPHGKHGNRNSNSYGIPEPAHAYAQPQTTTPLPAVSGSPGAAITPLPSTQNGPVFAKAIQKRVPCAYDKTALALEVGDIVKVTRMNINGQWEGEVNGRKGLFPFTHVKIFDPQNPDENE
notes: human CrkL, residues 1-303, in pETEV15b; also called Crk-like protein; source: E. coli BL21 (DE3), purified (IMAC, TEV digestion, SEC); not shown: His, N-terminal, cleaved

stoichiometry N (C3G-AAPA-Y554H): 0.47
B2: CrkL-SH3N (domain or fragment, human, UniProt P46109 125-182, looked up)
chain: LEYVRTLYDFPGNDAEDLPFKKGEILVIIEKPEEQWWSARNKDGRVGMIPVPYVEKLV
notes: human CrkL, SH3N domain, residues 125-182, in pETEV15b; source: E. coli BL21 (DE3), purified (IMAC, TEV digestion, SEC); not shown: His, N-terminal, cleaved

Reference: article PMC9896810, “Crk proteins activate the Rap1 guanine nucleotide exchange factor C3G by segregated adaptor-dependent and -independent mechanisms” (Cell Communication and Signaling : CCS, 2023)
